Test results: paper PMC5134096

Target: soluble manganese peroxidase (MnP) from Irpex lacteus F17 (Irpex lacteus F17)
Test: SEC + other: dynamic light scattering; soluble MnP after Ni-NTA; HiLoad 16/60 Superdex 200 in 20 mM Tris-HCl pH 8.0, 200 mM NaCl; SEC peak II, DLS at room temperature at 0.1 mg/ml in the same buffer

Substance: soluble manganese peroxidase (MnP) from Irpex lacteus F17 (enzyme)
- stoichiometry N: 2
